Assay results from the supplement of paper PMC7125110.
± gives the standard error. Fewer inactive variants are shown than the library holds.

B1: glmS ribozyme (parent)
chain: AUAAAAGCGCCAGAACUACAGAAAUGUAGUUGACGAGGAGGAGGUUUAUCGAAUUUUCGGCGGAUGCCUCCAAA

Legend:
Settings in all cases: with glucosamine-6-phosphate
glucosamine-6-phosphate [1] = variants of: B1; experiment: self-cleavage kobs at 40 uM GlcN6P; higher = faster cleavage; RNA array
Summary of the method: (§1)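 A hybridised Cy3 probe tracked barcoded ribozyme variants, transcribed in situ by E. coli RNA polymerase on sequenced MiSeq chips, at 37 °C. The variants received 40 μM to 10 mM glucosamine-6-phosphate in HEPES/KCl/Mg(OAc)2 buffer. kobs came from decay fits and kcat and KM from weighted Michaelis–Menten fits.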

glucosamine-6-phosphate [2] = variants of: B1; experiment: self-cleavage kobs at 160 uM GlcN6P; higher = faster cleavage; RNA array
Summary of the method: as §1

glucosamine-6-phosphate [3] = variants of: B1; experiment: self-cleavage kobs at 640 uM GlcN6P; higher = faster cleavage; RNA array
Summary of the method: as §1

glucosamine-6-phosphate [4] = variants of: B1; experiment: self-cleavage kobs at 10000 uM GlcN6P; higher = faster cleavage; RNA array
Summary of the method: as §1

glucosamine-6-phosphate [5] = variants of: B1; experiment: self-cleavage kobs at 2500 uM GlcN6P; higher = faster cleavage; RNA array
Summary of the method: as §1

Row | Variant | self-cleavage kobs at 40 uM GlcN6P (glucosamine-6-phosphate [1]) [s⁻¹] | self-cleavage kobs at 160 uM GlcN6P (glucosamine-6-phosphate [2]) [s⁻¹] | self-cleavage kobs at 640 uM GlcN6P (glucosamine-6-phosphate [3]) [s⁻¹] | self-cleavage kobs at 10000 uM GlcN6P (glucosamine-6-phosphate [4]) [s⁻¹] | self-cleavage kobs at 2500 uM GlcN6P (glucosamine-6-phosphate [5]) [s⁻¹]
1 | G29C U65C | < 1e-05 | < 1e-05 | – | – | –
2 | G21U G43U G51U | < 1e-05 | – | < 1e-05 | < 1e-05 | –
3 | A24U | 0.002 ± 0.0003 | – | – | – | –
4 | C16G G40U U65C | < 1e-05 | – | < 1e-05 | – | –
5 | A15U G29C A39G | 6.29e-05 ± 1.7e-05 | – | – | 0.00376 ± 0.0005 | –
6 | C16U C61G U65G | < 1e-05 | – | – | – | –
7 | U30A U54A G59U G62U C67U C70U | < 1e-05 | – | – | < 1e-05 | –
8 | U30A U56A | 9.28e-05 ± 1.4e-05 | – | – | 0.00496 ± 0.00075 | –
9 | C16A C50G C68U | 0.000143 ± 3.6e-05 | – | – | 0.000227 ± 6.2e-05 | –
10 | G29A G37C U69C | < 1e-05 | – | – | < 1e-05 | –
11 | G29U G32A U65G G66A | < 1e-05 | – | – | 4.66e-05 ± 1.9e-05 | –
12 | G29A G37U G40U U65G C68U | < 1e-05 | – | – | – | –
13 | A15U G62A | < 1e-05 | < 1e-05 | – | < 1e-05 | < 1e-05
14 | A15U G62C | < 1e-05 | – | < 1e-05 | < 1e-05 | –
15 | A15U G62U | < 1e-05 | – | < 1e-05 | < 1e-05 | < 1e-05
16 | C16G G62U | < 1e-05 | < 1e-05 | < 1e-05 | < 1e-05 | < 1e-05
17 | C16A A33U G38C | < 1e-05 | – | – | – | < 1e-05
18 | A15U C68A C71A | < 1e-05 | – | – | – | –
19 | C16G G40A A64C | < 1e-05 | – | – | < 1e-05 | –
20 | C16A U31A G32U G40C G41A C67U C68U | < 1e-05 | – | – | < 1e-05 | –
21 | C16U C34G U57A G62U | < 1e-05 | – | – | < 1e-05 | –
22 | U30C G35C G59C | < 1e-05 | – | – | < 1e-05 | –
23 | C16U A42G C61G | < 1e-05 | – | – | – | –
24 | C16G C34G C50A A64G | < 1e-05 | – | – | – | –
25 | C16A C61U C70A | < 1e-05 | – | – | – | –
26 | U30A G44U | < 1e-05 | – | – | – | –
27 | U30C G35A | < 1e-05 | < 1e-05 | < 1e-05 | < 1e-05 | < 1e-05
28 | A15U G59C | < 1e-05 | < 1e-05 | < 1e-05 | < 1e-05 | < 1e-05
